We go through nine sequences from the supplement of paper PMC11246515.

± gives the standard deviation of the averaged measurements.

A short description of the data set: total protein half-life in vivo (active degradation + dilution); higher = more stable protein.
[1] abbreviates: E. coli NCM3722 delta-clpP delta-lon delta-hslV, growth: N-lim chemostat, doubling time 6 h.
Where [2] appears, read: E. coli NCM3722 delta-clpP, growth: N-lim chemostat, doubling time 6 h.
Setting [3] is: E. coli NCM3722 delta-hslV, growth: N-lim chemostat, doubling time 6 h.
Setting [4] is: E. coli NCM3722 delta-lon, growth: N-lim chemostat, doubling time 6 h.
Setting [5] is: E. coli NCM3722 delta-smpB, growth: N-lim chemostat, doubling time 6 h.
Setting [6] is: wild type E. coli NCM3722, growth: C-lim chemostat, doubling time 3 h.
Where [7] appears, read: wild type E. coli NCM3722, growth: C-lim chemostat, doubling time 6 h.
Where [8] appears, read: wild type E. coli NCM3722, growth: C-lim chemostat, doubling time 12 h.
The mark [9] stands for this setting: wild type E. coli NCM3722, growth: N-lim chemostat, doubling time 6 h.
Where [10] appears, read: wild type E. coli NCM3722, growth: N-lim chemostat, doubling time 12 h.
The mark [11] stands for this setting: wild type E. coli NCM3722, growth: P-lim chemostat, doubling time 6 h.
The mark [12] stands for this setting: wild type E. coli NCM3722, growth: P-lim chemostat, doubling time 12 h.

Regarding “MRILHTSDWHLGQNFYSKSREAEHQAFLDWLLETAQTHQVDAIIVAGDVFDTGSPPSYARTLYNRFVVNLQQTGCHLVVLAGNHDSVATLNESRDIMAFLNTTVVASAGHAPQILPRRDGTPGAVLCPIPFLRPRDIITSQAGLNGIEKQQHLLAAITDYYQQHYADACKLRGDQPLPIIATGHLTTVGASKSDAVRDIYIGTLDAFPAQNFPPADYIALGHIHRAQIIGGMEHVRYCGSPIPLSFDECGKSKYVHLVTFSNGKLESVENLNVPVTQPMAVLKGDLASITAQLEQWRDVSQEPPVWLDIEITTDEYLHDIQRKIQALTESLPVEVLLVRRSREQRERVLASQQRETLSELSVEEVFNRRLALEELDESQQQRLQHLFTTTLHTLAGEHEA [P0AG76]”, the “total protein half-life in vivo” value under setting [1] came out at 5.77 ± 0.37 h; the “total protein half-life in vivo” value under setting [2] was determined as 4.79 ± 1.6 h; the “total protein half-life in vivo” value under setting [3] came to 4.67 ± 0.67 h; the “total protein half-life in vivo” value under setting [4] is 4.54 ± 0.071 h; the “total protein half-life in vivo” value under setting [5] came to 4.5 ± 0.46 h; the “total protein half-life in vivo” value under setting [6] was 2.6 ± 0.049 h. The “total protein half-life in vivo” value by setting is: under setting [7], 5.4 ± 0.27 h; under setting [8], 9.11 ± 1.4 h; under setting [9], 4.54 ± 0.17 h; under setting [10], 7.66 ± 0.56 h; under setting [11], 5.46 ± 0.31 h; under setting [12], 7.9 ± 0.1 h.
Take “MNSRQQTILQMVIDQGQVSVTDLAKATGVSEVTIRQDLNTLEKLSYLRRAHGFAVSLDSDDVETRMMSNYTLKRELAEFAASLVQPGETIFIENGSSNALLARTLGEQKKNVTIITVSSYIAHLLKDAPCEVILLGGVYQKKSESMVGPLTRQCIQQVHFSKAFIGIDGWQPETGFTGRDMMRTDVVNAVLEKECEAIVLTDSSKFGAVHSYSIGPVERFNRVITDSKIRASDLMHLEHSKLTIHVVDI”: the “total protein half-life in vivo” value was found to be 6.45 ± 1.4 h under setting [1]; 6.46 ± 0.62 h under setting [2]; 6.54 ± 0.67 h under setting [3]; 6.01 ± 0.45 h under setting [4]; 5.76 ± 0.27 h under setting [5]; 2.87 ± 0.21 h under setting [6]. Moreover, the “total protein half-life in vivo” value was 5.51 ± 0.27 h under setting [7]; 11.6 ± 0.87 h under setting [8]; 5.91 ± 0.31 h under setting [9]; 5.57 ± 0.19 h under setting [11]; 13.3 ± 0.69 h under setting [12].
“MRPAGRSNNQVRPVTLTRNYTKHAEGSVLVEFGDTKVLCTASIEEGVPRFLKGQGQGWITAEYGMLPRSTHTRNAREAAKGKQGGRTMEIQRLIARALRAAVDLKALGEFTITLDCDVLQADGGTRTASITGACVALVDALQKLVENGKLKTNPMKGMVAAVSVGIVNGEAVCDLEYVEDSAAETDMNVVMTEDGRIIEVQGTAEGEPFTHEELLILLALARGESNPL [P0CG19]”: the “total protein half-life in vivo” value reads like this: under setting [1], 5.037 ± 0.026 h; under setting [2], 4.44 ± 0.39 h; under setting [3], over 8 h; under setting [4], 4.79 ± 0.48 h; under setting [5], 4.48 ± 0.11 h; under setting [8], 11.7 ± 3.8 h. Moreover, the “total protein half-life in vivo” value is, setting by setting: under setting [9], 3.47 ± 0.77 h; under setting [10], 6.88 ± 0.082 h; under setting [11], 5.58 ± 0.93 h.
For the sequence “MGSQELQRKLGFWAVLAIAVGTTVGSGIFVSVGEVAKAAGTPWLTVLAFVIGGLIVIPQMCVYAELSTAYPENGADYVYLKNAGSRPLAFLSGWASFWANDAPSLSIMALAIVSNLGFLTPIDPLLGKFIAAGLIIAFMLLHLRSVEGGAAFQTLITIAKIIPFTIVIGLGIFWFKAENFAAPTTTAIGATGSFMALLAGISATSWSYTGMASICYMTGEIKNPGKTMPRALIGSCLLVLVLYTLLALVISGLMPFDKLANSETPISDALTWIPALGSTAGIFVAITAMIVILGSLSSCVMYQPRLEYAMAKDNLFFKCFGHVHPKYNTPDVSIILQGALGIFFIFVSDLTSLLGYFTLVMCFKNTLTFGSIIWCRKRDDYKPLWRTPAFGLMTTLAIASSLILVASTFVWAPIPGLICAVIVIATGLPAYAFWAKRSRQLNALS”, the “total protein half-life in vivo” value under setting [6] stood at 3.26 h.
As to “MNKNMAGILSAAAVLTMLAGCTAYDRTKDQFVQPVVKDVKKGMSRAQVAQIAGKPSSEVSMIHARGTCQTYILGQRDGKAETYFVALDDTGHVINSGYQTCAEYDTDPQAAK [P0ADB1]”, the “total protein half-life in vivo” value by setting is: under setting [1], 5.54 ± 0.094 h; under setting [2], 5.7 ± 0.36 h; under setting [5], 5.74 ± 0.22 h; under setting [6], 3.03 ± 0.22 h; under setting [7], 6.14 ± 0.68 h; under setting [8], 10.4 ± 1.6 h. Moreover, the “total protein half-life in vivo” value is, setting by setting: under setting [10], 12.3 ± 2.4 h; under setting [11], 5.73 ± 0.26 h; under setting [12], 12.6 ± 0.59 h.
For the sequence “MAVTKLVLVRHGESQWNKENRFTGWYDVDLSEKGVSEAKAAGKLLKEEGYSFDFAYTSVLKRAIHTLWNVLDELDQAWLPVEKSWKLNERHYGALQGLNKAETAEKYGDEQVKQWRRGFAVTPPELTKDDERYPGHDPRYAKLSEKELPLTESLALTIDRVIPYWNETILPRMKSGERVIIAAHGNSLRALVKYLDNMSEEEILELNIPTGVPLVYEFDENFKPLKRYYLGNADEIAAKAAAVANQGKAK”, the “total protein half-life in vivo” value by setting is: under setting [1], 5.09 ± 0.33 h; under setting [2], 5.4 ± 0.96 h; under setting [3], 5.11 ± 0.76 h; under setting [4], 5.42 ± 0.82 h; under setting [5], 4.7 ± 0.09 h; under setting [6], 3.18 ± 0.098 h. The “total protein half-life in vivo” value under setting [7] amounted to 6.37 ± 0.56 h; the “total protein half-life in vivo” value under setting [8] was 10.3 ± 0.34 h; the “total protein half-life in vivo” value under setting [9] stood at 4.85 ± 0.46 h; the “total protein half-life in vivo” value under setting [10] was found to be 8.63 ± 0.17 h; the “total protein half-life in vivo” value under setting [11] stood at 6.02 ± 0.45 h; the “total protein half-life in vivo” value under setting [12] was determined as 12 ± 0.62 h.
On to “MTEKVKQHAAPVTGSDEIDIGRLVGTVIEARWWVIGITTVFALCAVVYTFFATPIYSADALVQIEQNSGNSLVQDIGSALANKPPASDAEIQLIRSRLVLGKTVDDLDLDIAVSKNTFPIFGAGWDRLMGRQNETVKVTTFNRPKEMADQVFTLNVLDNKNYTLSSDGGFSARGQAGQMLKKEGVTLMVEAIHASPGSEFTVTKYSTLGMINQLQNSLTVTENGKDAGVLSLTYTGEDREQIRDILNSIARNYQEQNIERKSAEASKSLAFLAQQLPEVRSRLDVAENKLNAFRQDKDSVDLPLEAKAVLDSMVNIDAQLNELTFKEAEISKLYTKVHPAYRTLLEKRQALEDEKAKLNGRVTAMPKTQQEIVRLTRDVESGQQVYMQLLNKEQELKITEASTVGDVRIVDPAITQPGVLKPKKGLIILGAIILGLMLSIVGVLLRSLFNRGIESPQVLEEHGISVYASIPLSEWQKARDSVKTIKGIKRYKQSQLLAVGNPTDLAIEAIRSLRTSLHFAMMQAQNNVLMMTGVSPSIGKTFVCANLAAVISQTNKRVLLIDCDMRKGYTHELLGTNNVNGLSEILIGQGDITTAAKPTSIAKFDLIPRGQVPPNPSELLMSERFAELVNWASKNYDLVLIDTPPILAVTDAAIVGRHVGTTLMVARYAVNTLKEVETSLSRFEQNGIPVKGVILNSIFRRASAYQDYGYYEYEYKSDAK”, for which the “total protein half-life in vivo” value turned out to be 4.27 ± 0.44 h under setting [4], 2.13 ± 0.52 h under setting [5] and 2.75 h under setting [6].
With “MPVLHNRISNDALKAKMLAESEPRTTISFYKYFHIADPKATRDALYQLFTALNVFGRVYLAHEGINAQISVPASNVETFRAQLYAFDPALEGLRLNIALDDDGKSFWVLRMKVRDRIVADGIDDPHFDASNVGEYLQAAEVNAMLDDPDALFIDMRNHYEYEVGHFENALEIPADTFREQLPKAVEMMQAHKDKKIVMYCTGGIRCEKASAWMKHNGFNKVWHIEGGIIEYARKAREQGLPVRFIGKNFVFDERMGERISDEIIAHCHQCGAPCDSHTNCKNDGCHLLFIQCPVCAEKYKGCCSEICCEESALPPEEQRRRRAGRENGNKIFNKSRGRLNTTLCIPDPTE”, the “total protein half-life in vivo” value under setting [1] amounted to 5.01 ± 0.67 h; the “total protein half-life in vivo” value under setting [2] amounted to 0.746 ± 0.024 h; the “total protein half-life in vivo” value under setting [3] stood at 0.396 h; the “total protein half-life in vivo” value under setting [4] turned out to be 0.483 h; the “total protein half-life in vivo” value under setting [5] is 0.56 h; the “total protein half-life in vivo” value under setting [6] was determined as 0.343 ± 0.0081 h. The “total protein half-life in vivo” value runs as follows: under setting [7], 0.308 h; under setting [8], 0.65 h; under setting [10], 0.808 h; under setting [11], 0.402 ± 0.34 h; under setting [12], 1.16 ± 1.1 h.
Turning to “MLDLFADAEPWQEPLAAGAVILRRFAFNAAEQLIRDINDVASQSPFRQMVTPGGYTMSVAMTNCGHLGWTTHRQGYLYSPIDPQTNKPWPAMPQSFHNLCQRAATAAGYPDFQPDACLINRYAPGAKLSLHQDKDEPDLRAPIVSVSLGLPAIFQFGGLKRNDPLKRLLLEHGDVVVWGGESRLFYHGIQPLKAGFHPLTIDCRYNLTFRQAGKKE”, the “total protein half-life in vivo” value under setting [2] was 4.32 h; the “total protein half-life in vivo” value under setting [3] came out at 2.76 h; the “total protein half-life in vivo” value under setting [4] was determined as 3.17 h; the “total protein half-life in vivo” value under setting [5] was determined as 3.02 ± 0.09 h; the “total protein half-life in vivo” value under setting [9] was found to be 2.87 ± 0.47 h; the “total protein half-life in vivo” value under setting [10] stood at 4.66 ± 0.55 h. Besides, the “total protein half-life in vivo” value by setting is: under setting [11], 3.76 ± 0.13 h; under setting [12], 5.89 h.
